Test results: paper PMC8184839

What was measured:
[1] = target: cyclin D1 with the CDK6n-CDK4c chimera (UniProt P24385); assay: recruitment to a CDK tethered at the inner nuclear membrane, with FRAP; as a4 but with 6 µM palbociclib overnight and throughout, or 6 µM palbociclib, ribociclib or abemaciclib added acutely about 4-5 min after photobleaching
[2] = target: CDK2-mTurquoise-Δ50 lamin A (UniProt P24941); assay: recruitment to a CDK tethered at the inner nuclear membrane, with FRAP; live RPE-1 cells with mVenus-cyclin and CDK-mTurquoise-Δ50 lamin A, p21 and p27 depleted by siRNA co-knockdown; recovery of mVenus after photobleaching; 37 °C

Sequence of mRuby3-p21 (P38936 whole entry): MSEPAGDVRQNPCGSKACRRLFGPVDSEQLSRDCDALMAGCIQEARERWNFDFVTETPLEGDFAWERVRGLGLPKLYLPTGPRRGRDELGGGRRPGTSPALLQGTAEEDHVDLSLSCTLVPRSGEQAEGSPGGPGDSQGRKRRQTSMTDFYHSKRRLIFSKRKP
Sequence of cyclin D1 with the CDK6n-CDK4c chimera (P24385 whole entry, looked up, stated change not applied): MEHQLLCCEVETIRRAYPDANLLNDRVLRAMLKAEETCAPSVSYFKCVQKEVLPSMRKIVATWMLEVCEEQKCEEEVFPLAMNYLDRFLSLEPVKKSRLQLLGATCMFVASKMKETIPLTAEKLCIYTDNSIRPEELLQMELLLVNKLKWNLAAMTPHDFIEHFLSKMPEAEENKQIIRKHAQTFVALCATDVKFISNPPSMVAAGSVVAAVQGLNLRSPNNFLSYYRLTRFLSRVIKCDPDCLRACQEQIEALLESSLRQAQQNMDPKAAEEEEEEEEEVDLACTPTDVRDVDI
Sequence of mVenus-cyclin E1 (P24864 whole entry): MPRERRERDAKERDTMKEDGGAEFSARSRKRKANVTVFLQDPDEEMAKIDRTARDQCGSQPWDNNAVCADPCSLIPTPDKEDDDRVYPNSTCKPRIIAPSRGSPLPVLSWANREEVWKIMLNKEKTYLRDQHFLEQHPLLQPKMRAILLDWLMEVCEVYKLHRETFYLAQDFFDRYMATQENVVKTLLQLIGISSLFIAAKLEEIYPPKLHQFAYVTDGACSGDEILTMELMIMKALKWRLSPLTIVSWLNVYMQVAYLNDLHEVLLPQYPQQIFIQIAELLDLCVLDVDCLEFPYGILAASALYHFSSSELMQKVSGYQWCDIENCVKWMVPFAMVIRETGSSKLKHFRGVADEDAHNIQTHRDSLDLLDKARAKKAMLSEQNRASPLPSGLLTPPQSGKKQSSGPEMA

| Substance | fold decrease in fold change of the off-rate with palbociclib against DMSO [1] | dissociation t-half [2] |
| --- | --- | --- |
| mRuby3-p21 (from UniProt P38936 1-164) (natural protein) | 10 fold |  |
| mVenus-cyclin E1 (from UniProt P24864 1-410) (natural protein; other documents disagree on this pair) |  | 3 min |
